# Measurements published in patent US20250277199, “NOVEL CRISPR-CAS NUCLEASES FROM METAGENOMES” (Brain Biotech AG, published 2025).
# T1: BMC12 (uncultured bacterium (metagenome))
# T1 chain: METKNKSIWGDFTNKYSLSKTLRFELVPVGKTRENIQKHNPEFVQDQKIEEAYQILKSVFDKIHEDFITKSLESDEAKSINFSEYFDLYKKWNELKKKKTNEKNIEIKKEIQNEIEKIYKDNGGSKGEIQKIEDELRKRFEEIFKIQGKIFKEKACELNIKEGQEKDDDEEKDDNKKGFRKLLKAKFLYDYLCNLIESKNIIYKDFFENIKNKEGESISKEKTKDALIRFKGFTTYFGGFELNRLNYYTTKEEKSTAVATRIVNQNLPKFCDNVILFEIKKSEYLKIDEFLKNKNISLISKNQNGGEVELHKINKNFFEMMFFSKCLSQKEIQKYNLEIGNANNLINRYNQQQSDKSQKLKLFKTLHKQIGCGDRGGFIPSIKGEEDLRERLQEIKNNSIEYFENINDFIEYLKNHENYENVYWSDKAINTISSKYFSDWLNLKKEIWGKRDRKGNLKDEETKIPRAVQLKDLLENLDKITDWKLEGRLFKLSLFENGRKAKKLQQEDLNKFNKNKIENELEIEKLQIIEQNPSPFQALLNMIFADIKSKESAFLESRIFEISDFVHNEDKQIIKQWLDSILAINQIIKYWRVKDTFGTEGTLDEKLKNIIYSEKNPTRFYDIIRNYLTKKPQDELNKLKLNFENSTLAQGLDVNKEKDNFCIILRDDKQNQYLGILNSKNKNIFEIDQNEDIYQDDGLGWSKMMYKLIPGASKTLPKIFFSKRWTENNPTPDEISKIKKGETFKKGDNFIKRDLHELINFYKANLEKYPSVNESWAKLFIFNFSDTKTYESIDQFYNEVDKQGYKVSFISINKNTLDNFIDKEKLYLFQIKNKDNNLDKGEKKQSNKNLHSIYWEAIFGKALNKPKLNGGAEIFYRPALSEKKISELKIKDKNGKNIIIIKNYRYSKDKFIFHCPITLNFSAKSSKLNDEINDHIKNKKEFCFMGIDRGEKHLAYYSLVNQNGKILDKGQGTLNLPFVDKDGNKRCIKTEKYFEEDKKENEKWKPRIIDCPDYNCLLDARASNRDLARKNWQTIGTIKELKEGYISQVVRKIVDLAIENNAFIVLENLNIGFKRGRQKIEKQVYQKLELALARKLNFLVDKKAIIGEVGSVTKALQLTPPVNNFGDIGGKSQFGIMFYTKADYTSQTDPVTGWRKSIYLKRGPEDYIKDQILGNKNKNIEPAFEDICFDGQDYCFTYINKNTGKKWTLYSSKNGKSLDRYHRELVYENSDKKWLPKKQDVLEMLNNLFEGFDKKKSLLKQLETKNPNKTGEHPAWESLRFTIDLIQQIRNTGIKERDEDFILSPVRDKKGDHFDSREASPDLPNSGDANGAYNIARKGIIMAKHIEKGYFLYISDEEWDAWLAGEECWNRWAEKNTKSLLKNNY
# Target: T1, BMC12
# Assay: cell_activity; PAM not stated; E. coli depletion, 30 C
# Summary of the method: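 E. coli carrying arabinose-induced (0.2%) BMC nuclease, grown at 30° C., made electrocompetent and electroporated with 50-100 ng plasmid carrying gRNA against malQ. Transformants plated on selective M9-glucose agar with kanamycin/ampicillin (± nourseothricin), and growth scored after 48 h at 30° C.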
binder,measurement,value
malQ gRNA (BMC stem-loop + 24 nt spacer) ; malQ protospacer (ssRNA ; dsDNA) RNA: GAUUUCUACUAUUGUAGAUGUGGCGGUACGUUGAUGCAUCGCG DNA 1: GTGGCGGTACGTTGATGCATCGCG DNA 2: CGCGATGCATCAACGTACCGCCAC,activity,> 99.9 % colony reduction
